Values quoted from earlier work as cited in article PMC3408481.

Experiments:
PACAP (Homo sapiens) = PACAP (Homo sapiens) (UniProt P18509)
VIP (Homo sapiens) = VIP (Homo sapiens) (UniProt P01282)
Chain of UniProt P01282 (P01282 125-152): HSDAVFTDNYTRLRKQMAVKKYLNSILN

Chain of UniProt P18509 (P18509 82-129): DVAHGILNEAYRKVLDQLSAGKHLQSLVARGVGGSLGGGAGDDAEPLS

PAC1 receptor (from UniProt P41586)
Kd (PACAP (Homo sapiens)): 0.5 nM
Kd (VIP (Homo sapiens)): 500 nM
